Assay results as given in the supplement of paper PMC9112550, “Optimization of the antimicrobial peptide Bac7 by deep mutational scanning” (BMC Biology, 2022).

test system: Escherichia coli TOP10; experiment: shrunken log2 fold change of peptide-encoding DNA abundance (4.5 h post-induction vs induction); higher = less antimicrobial activity (less host growth inhibition); conditions: time post-induction: 4.5 h; library: site-saturation at positions 5, 18, 19, 20
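Further: peptides expressed intracellularly from a pBAD plasmid library in pooled LB shake-flask culture, induced with 0.3% L-arabinose, DNA abundance read by NGS, three biological replicates, DESeq2 with apeglm shrinkage.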

Compared with RRIRMRPPRLPRPRPRPSGAPRP, RRIRARPPRLPRPRPRPDWSPRP is lower in “shrunken log2 fold change” value: 1.13 for the first, 0.048 for the second.

RRIRARPPRLPRPRPRPNKAPRP and RRIRPRPPRLPRPRPRPWDGPRP are within 0.2 log units of each other in “shrunken log2 fold change” value: 0.00219 for the first, -0.0681 for the second.

First: RRIRHRPPRLPRPRPRPLTKPRP
Second: RRIRFRPPRLPRPRPRPLYWPRP
The “shrunken log2 fold change” value of the first is higher: 0.133 for the first, -0.319 for the second.

Compared with RRIRIRPPRLPRPRPRPLEQPRP, RRIRGRPPRLPRPRPRPHKAPRP is higher in “shrunken log2 fold change” value: -0.419 for the first, -0.0636 for the second.

First: RRIRWRPPRLPRPRPRPVSAPRP
Second: RRIRARPPRLPRPRPRPKEGPRP
The “shrunken log2 fold change” value of the first is higher: 0.316 for the first, -0.00115 for the second.

Going from RRIRLRPPRLPRPRPRPQFPPRP to RRIRSRPPRLPRPRPRPASTPRP, the “shrunken log2 fold change” value falls from 0.172 to -0.16.

Compared with RRIRRRPPRLPRPRPRPMHRPRP, RRIRFRPPRLPRPRPRPSYFPRP is lower in “shrunken log2 fold change” value: 0.0514 for the first, -0.479 for the second.

RRIRMRPPRLPRPRPRPFSQPRP and RRIRDRPPRLPRPRPRPTKIPRP are within 0.2 log units of each other in “shrunken log2 fold change” value: -0.0398 for the first, 0.0599 for the second.

Going from RRIRQRPPRLPRPRPRPQKEPRP to RRIRHRPPRLPRPRPRPGTNPRP, the “shrunken log2 fold change” value falls from -0.00507 to -0.212.

First: RRIRTRPPRLPRPRPRPDEIPRP
Second: RRIRKRPPRLPRPRPRPIGQPRP
The “shrunken log2 fold change” value of the first is lower: -0.235 for the first, 0.0684 for the second.

RRIRVRPPRLPRPRPRPFGEPRP and RRIRHRPPRLPRPRPRPPLLPRP are within 0.2 log units of each other in “shrunken log2 fold change” value: 0.092 for the first, 0.152 for the second.

RRIRERPPRLPRPRPRPVVQPRP and RRIRPRPPRLPRPRPRPSEPPRP are within 0.2 log units of each other in “shrunken log2 fold change” value: -0.104 for the first, -0.213 for the second.

RRIRVRPPRLPRPRPRPLKEPRP and RRIRDRPPRLPRPRPRPETWPRP are within 0.2 log units of each other in “shrunken log2 fold change” value: 0.0279 for the first, 0.0111 for the second.

First: RRIRQRPPRLPRPRPRPLDGPRP
Second: RRIRCRPPRLPRPRPRPVLYPRP
The “shrunken log2 fold change” value of the first is higher: 0.237 for the first, -0.432 for the second.

Compared with RRIRLRPPRLPRPRPRPDCVPRP, RRIRTRPPRLPRPRPRPRIMPRP is lower in “shrunken log2 fold change” value: 0.0107 for the first, -0.254 for the second.

RRIRVRPPRLPRPRPRPGCTPRP and RRIRLRPPRLPRPRPRPPNYPRP are within 0.2 log units of each other in “shrunken log2 fold change” value: -0.246 for the first, -0.23 for the second.

Compared with RRIRWRPPRLPRPRPRPVTVPRP, RRIRDRPPRLPRPRPRPRDAPRP is higher in “shrunken log2 fold change” value: -0.194 for the first, 0.59 for the second.

Compared with RRIRVRPPRLPRPRPRPVWGPRP, RRIRQRPPRLPRPRPRPTDTPRP is lower in “shrunken log2 fold change” value: 1.8 for the first, -0.339 for the second.

RRIRCRPPRLPRPRPRPHRGPRP and RRIRMRPPRLPRPRPRPCCQPRP are within 0.2 log units of each other in “shrunken log2 fold change” value: 0.0133 for the first, 0.212 for the second.

Compared with RRIRTRPPRLPRPRPRPGETPRP, RRIRDRPPRLPRPRPRPEQHPRP is higher in “shrunken log2 fold change” value: -0.105 for the first, 0.465 for the second.

Compared with RRIRERPPRLPRPRPRPVDDPRP, RRIRRRPPRLPRPRPRPGPAPRP is higher in “shrunken log2 fold change” value: 0.133 for the first, 0.562 for the second.

First: RRIRGRPPRLPRPRPRPFYPPRP
Second: RRIRHRPPRLPRPRPRPFTSPRP
The “shrunken log2 fold change” value of the first is lower: -0.62 for the first, -0.197 for the second.

Compared with RRIRIRPPRLPRPRPRPVLKPRP, RRIRVRPPRLPRPRPRPQPSPRP is higher in “shrunken log2 fold change” value: -0.234 for the first, 0.00981 for the second.

Compared with RRIRDRPPRLPRPRPRPRIFPRP, RRIRCRPPRLPRPRPRPFWKPRP is lower in “shrunken log2 fold change” value: -0.0459 for the first, -0.271 for the second.

First: RRIRVRPPRLPRPRPRPQTPPRP
Second: RRIRNRPPRLPRPRPRPSVDPRP
The “shrunken log2 fold change” value of the first is higher: 0.546 for the first, -0.0699 for the second.

First: RRIRCRPPRLPRPRPRPFEWPRP
Second: RRIRTRPPRLPRPRPRPSINPRP
The “shrunken log2 fold change” value of the first is higher: -0.0143 for the first, -0.63 for the second.

First: RRIRDRPPRLPRPRPRPYMVPRP
Second: RRIRWRPPRLPRPRPRPYFFPRP
The “shrunken log2 fold change” value of the first is higher: 0.0212 for the first, -0.245 for the second.

Compared with RRIRIRPPRLPRPRPRPHHMPRP, RRIRYRPPRLPRPRPRPEHQPRP is higher in “shrunken log2 fold change” value: -1.2 for the first, -0.464 for the second.

First: RRIRNRPPRLPRPRPRPWMTPRP
Second: RRIRIRPPRLPRPRPRPTKYPRP
The “shrunken log2 fold change” value of the first is higher: -0.189 for the first, -0.681 for the second.

First: RRIRQRPPRLPRPRPRPRAMPRP
Second: RRIRHRPPRLPRPRPRPFIVPRP
The “shrunken log2 fold change” value of the first is higher: 0.0219 for the first, -0.319 for the second.

First: RRIRSRPPRLPRPRPRPVFDPRP
Second: RRIRPRPPRLPRPRPRPNNHPRP
The “shrunken log2 fold change” value of the first is higher: 0.106 for the first, -0.607 for the second.

Compared with RRIRTRPPRLPRPRPRPQRVPRP, RRIRCRPPRLPRPRPRPRPHPRP is higher in “shrunken log2 fold change” value: -0.0793 for the first, 0.211 for the second.

RRIRYRPPRLPRPRPRPAFAPRP and RRIRRRPPRLPRPRPRPINAPRP are within 0.2 log units of each other in “shrunken log2 fold change” value: -0.0121 for the first, 0.185 for the second.

Compared with RRIRKRPPRLPRPRPRPIQNPRP, RRIRYRPPRLPRPRPRPFLKPRP is lower in “shrunken log2 fold change” value: 0.151 for the first, -0.122 for the second.

RRIRHRPPRLPRPRPRPYRWPRP and RRIRERPPRLPRPRPRPLLDPRP are within 0.2 log units of each other in “shrunken log2 fold change” value: -0.00879 for the first, -0.0911 for the second.

RRIRYRPPRLPRPRPRPSPSPRP and RRIRVRPPRLPRPRPRPHCPPRP are within 0.2 log units of each other in “shrunken log2 fold change” value: -0.269 for the first, -0.173 for the second.

Compared with RRIRFRPPRLPRPRPRPTAFPRP, RRIRCRPPRLPRPRPRPYIDPRP is lower in “shrunken log2 fold change” value: 0.0899 for the first, -1.39 for the second.

With RRIRSRPPRLPRPRPRPWPCPRP the “shrunken log2 fold change” value was 0.134.
